Like-named read-outs stand apart in the source and are kept apart here.
Columns and labels:
Assay in all cases: cell-based or functional assay
[1] = biological target: human TSHR (thyroid stimulating hormone receptor) expressed in transfected CHO cells (human) (UniProt P16473)
[2] = biological target: human TSH receptor (full length, wild type) expressed in CHO cells (human) (UniProt P16473)
[3] = biological target: human TSH receptor (full length, wild type) expressed in CHO cells (human) (UniProt P16473); remark: listed apart in the source
[4] = biological target: human TSHR (wild type, full length) expressed in CHO cells (human) (UniProt P16473)
[5] = biological target: human TSHR (wild type, full length) expressed in CHO cells (human) (UniProt P16473); remark: listed apart in the source

9D33 IgG (antibody) gave a % Inhibition; 3 ng/mL M22 IgG + 0.001 µg/mL 9D33 IgG [1] of 9%, a % Inhibition; 3 ng/mL M22 IgG + 0.01 µg/mL 9D33 IgG [1] of 2% and a % Inhibition; 3 ng/mL M22 IgG + 0.1 µg/mL 9D33 IgG [1] of 66%. For the same substance, the % Inhibition; 3 ng/mL M22 IgG + 1 µg/mL 9D33 IgG [1] was 93%, the % Inhibition; 3 ng/mL M22 IgG + 10 µg/mL 9D33 IgG [1] was 94% and the % Inhibition; 3 ng/mL M22 IgG + 100 µg/mL 9D33 IgG [1] was 95%. The Cyclic AMP concentration; 3 ng/mL M22 IgG + 0.001 µg/mL 9D33 IgG [1] was 19.4 pmol/mL, the Cyclic AMP concentration; 3 ng/mL M22 IgG + 0.01 µg/mL 9D33 IgG [1] was 21 pmol/mL and the Cyclic AMP concentration; 3 ng/mL M22 IgG + 0.1 µg/mL 9D33 IgG [1] was 7.19 pmol/mL. It also gave a Cyclic AMP concentration; 3 ng/mL M22 IgG + 1 µg/mL 9D33 IgG [1] of 1.48 pmol/mL, a Cyclic AMP concentration; 3 ng/mL M22 IgG + 10 µg/mL 9D33 IgG [1] of 1.2 pmol/mL and a Cyclic AMP concentration; 3 ng/mL M22 IgG + 100 µg/mL 9D33 IgG [1] of 1.01 pmol/mL. It also gave a Cyclic AMP concentration; 100 µg/mL 9D33 IgG [1] of 1.31 pmol/mL, a % Inhibition; T10 serum + 100 µg/mL 9D33 IgG [2] of 95.4% and a % Inhibition; T11 serum + 100 µg/mL 9D33 IgG [2] of 87.1%. For the same substance, the % Inhibition; T12 serum + 100 µg/mL 9D33 IgG [2] was 91.7%, the Cyclic AMP concentration; 100 µg/mL 9D33 IgG alone [2] was 1.9 pmol/mL and the Cyclic AMP concentration; HBD + 100 µg/mL 9D33 IgG [2] was 3.2 pmol/mL. It also gave a Cyclic AMP concentration; T10 serum + 100 µg/mL 9D33 IgG [2] of 2.6 pmol/mL, a Cyclic AMP concentration; T11 serum + 100 µg/mL 9D33 IgG [2] of 5.3 pmol/mL and a Cyclic AMP concentration; T12 serum + 100 µg/mL 9D33 IgG [2] of 3.6 pmol/mL. The % Inhibition; T1 serum + 100 µg/mL 9D33 IgG [3] was 95.4%, the % Inhibition; T2 serum + 100 µg/mL 9D33 IgG [3] was 96.8% and the % Inhibition; T3 serum + 100 µg/mL 9D33 IgG [3] was 94.2%. For the same substance, the Cyclic AMP concentration; 100 µg/mL 9D33 IgG alone [3] was 2.1 pmol/mL, the Cyclic AMP concentration; HBD + 100 µg/mL 9D33 IgG [3] was 1.9 pmol/mL and the Cyclic AMP concentration; T1 serum + 100 µg/mL 9D33 IgG [3] was 4.6 pmol/mL. For the same substance, the Cyclic AMP concentration; T2 serum + 100 µg/mL 9D33 IgG [3] was 2 pmol/mL, the Cyclic AMP concentration; T3 serum + 100 µg/mL 9D33 IgG [3] was 3.7 pmol/mL and the % Inhibition of T5 serum stimulation; 0.01 µg/mL 9D33 IgG [4] was 23%. The % Inhibition of T5 serum stimulation; 0.1 µg/mL 9D33 IgG [4] was 55.7%, the % Inhibition of T5 serum stimulation; 1 µg/mL 9D33 IgG [4] was 93.6% and the % Inhibition of T5 serum stimulation; 10 µg/mL 9D33 IgG [4] was 96.4%. The % Inhibition of T5 serum stimulation; 100 µg/mL 9D33 IgG [4] was 95.3%, the Cyclic AMP concentration; 0.01 µg/mL 9D33 IgG + T5 [4] was 49.2 pmol/mL and the Cyclic AMP concentration; 0.1 µg/mL 9D33 IgG + T5 [4] was 28.3 pmol/mL. It also gave a Cyclic AMP concentration; 1 µg/mL 9D33 IgG + T5 [4] of 4.1 pmol/mL, a Cyclic AMP concentration; 10 µg/mL 9D33 IgG + T5 [4] of 2.3 pmol/mL and a Cyclic AMP concentration; 100 µg/mL 9D33 IgG + T5 [4] of 3 pmol/mL. For the same substance, the Cyclic AMP concentration; 100 µg/mL 9D33 IgG alone [4] was 2.4 pmol/mL, the % Inhibition of T8 serum stimulation; 0.01 µg/mL 9D33 IgG [5] was 12% and the % Inhibition of T8 serum stimulation; 0.1 µg/mL 9D33 IgG [5] was 56%. It also gave a % Inhibition of T8 serum stimulation; 1 µg/mL 9D33 IgG [5] of 91%, a % Inhibition of T8 serum stimulation; 10 µg/mL 9D33 IgG [5] of 93% and a % Inhibition of T8 serum stimulation; 100 µg/mL 9D33 IgG [5] of 93%. The Cyclic AMP concentration; 0.01 µg/mL 9D33 IgG + T8 [5] was 45.8 pmol/mL, the Cyclic AMP concentration; 0.1 µg/mL 9D33 IgG + T8 [5] was 22.9 pmol/mL and the Cyclic AMP concentration; 1 µg/mL 9D33 IgG + T8 [5] was 4.7 pmol/mL. It also gave a Cyclic AMP concentration; 10 µg/mL 9D33 IgG + T8 [5] of 3.7 pmol/mL and a Cyclic AMP concentration; 100 µg/mL 9D33 IgG + T8 [5] of 3.6 pmol/mL.
